{"source": "patent US8101714B2", "about": "“Teleost derived antimicrobial polypeptides” (The University of Georgia Research Foundation, Inc., priority 2004, dated 2012)", "key": {"E. coli, DH5alpha strain": {"tested_on": "E. coli, DH5alpha strain", "assay": "Anti-microbial modified broth dilution assay with recombinant NCAMP-1", "type": "cell-based", "details": "for MIC50 (MIC for 50% bactericidal activity): 2 h incubation, colony counts", "experimental": "(§1) The recombinant protein was examined for anti-microbial activity by a modified broth dilution assay. NCAMP-1 activity was tested against Gram positive (Micrococcus luteus, Streptococcus iniae) and Gram negative (E. coli, DH5alpha strain) microorganisms. S. iniae was grown and tested for susceptibility in Todd-Hewitt broth (THB) at 30° C. E. coli and M. luteus were grown and tested at 37° C. in Mueller-Hinton broth (MHB). Overnight cultures were diluted into fresh media and grown at the indicated temperature for 3-6 h. Cultures were diluted to 5000 CFUs (colony forming units)/ml in 10 mM sodium phosphate buffer (NAPB), supplemented to 10% wvith either MHB or THB. The relationship between A620 and CFUs was previously determined in our laboratory for each bacteria. Fifty microliters of bacteria (5000 CFUs) were added to an equal volume of NCAMP-1 (or control protein) diluted in 10 mM NAPB to the indicated protein concentration. Assay tubes were incubated at the appropriate temperatures for 2 h with shaking. Colony counts were then determined by plating serial dilutions of test cultures on the appropriate media. Results are expressed as CFUs/ml."}, "GpC and CpG ODNs": {"tested_on": "GpC and CpG ODNs", "assay": "Southwestern (ODN) blot of recombinant NCAMP-1", "type": "binding", "details": "Southwestern blotting, biotinylated ODNs, FIG. 13B", "experimental": "Biotinylated ODNs were used to identify potential. DNA binding proteins in NCC membrane lysate preparations and to evaluate the ODN binding of recombinant NCAMP-1. Membrane lysates were prepared as indicated above. Purified recombinant NCAMP-1 was mixed with SDS-PAGE sample buffer (reducing) prior to electrophoresis. […] Membranes were blocked in Superblock (Pierce, Rockford Ill.) blocking solution with 0.05% Tween-20. ODN's were diluted in Superblock and added to membranes (1 h, room temperature). Membranes were washed (3×) in TBS with 0.5% Tween-20 (TBST). Neutraviden-HRP (Pierce) diluted in Superblock (minimum dilution 1:50000) was added and incubated for 30 min at room temperature. Blots were washed (3×) in TBST and were developed with enhanced chemiluminiscence (SuperSignal® West Pico Pierce, Rockford, Ill.)."}, "Micrococcus luteus": {"tested_on": "Micrococcus luteus", "assay": "Anti-microbial assay, residual colony counts", "type": "cell-based", "details": "M. luteus, 37 C, 2 h", "experimental": "as §1, with “Fifty microliters of bacteria (5000 CFUs) were added to an equal volume of NCAMP-1 (or control protein) diluted in 10 mM NAPB to the indicated protein concentration. Assay tubes were incubated at the appropriate temperatures for 2 h with shaking.” left out\nM. luteus were killed by full length recombinant NCAMP-1. […] After 2 hours, the OD620 was measured. Using a previously determined relationship of OD620 0.1=1.2×10^7 CFUs/ml, bacteria was diluted to 10^5 CFUs/ml in sodium phosphate buffer (pH8) supplemented with 10% with MH broth (assay buffer). […] Serial dilutions of each sample were plated onto MH agar plates and residual colony counts were determined. […]"}, "Streptococcus iniae": {"tested_on": "Streptococcus iniae", "assay": "Anti-microbial modified broth dilution assay with recombinant NCAMP-1", "type": "cell-based", "details": "S. iniae", "experimental": "as §1"}}, "data": [{"molecule": "NCAMP-d2: truncated recombinant NCAMP-1, aa 1-60 of SEQ ID NO:3 (MSAQAEETAPEAAAPVQPSQPAAKKKGPASKAKPASAEKKNKKKKGKGPGKYSQLVINAI; listed as Ictalurus punctatus)", "values": [{"measurement": "MIC50 concentration", "setting": "E. coli, DH5alpha strain", "value": 1.0, "unit": "µM"}, {"measurement": "MIC50 (MIC for 50% bactericidal activity)", "setting": "E. coli, DH5alpha strain", "value": 1.0, "unit": "µM"}]}, {"molecule": "NCAMP-1: NCC cationic antimicrobial protein-1 from channel catfish, 203 amino acids, SEQ ID NO:3; recombinant His-tagged form expressed in E. coli (protein, listed as Ictalurus punctatus, His tag, recombinant His-tagged form expressed in E. coli) MSAQAEETAPEAAAPVQPSQPAAKKKGPASKAKPASAEKKNKKKKGKGPGKYSQLVINAIQTLGERNGSSLFKIYNEAKKVNWFDQQHGRVYLRYSIRALLQNDTLVQVKGLGANGSFKLNKKKFIPRTKKSSVKPRKTAKPTKKPAKKAAKKKKRVSGVKKATPPPEKTSKPKKADKSPAVSAKKASKPKKAKQTKKTAKKT", "values": [{"measurement": "ODN binding of recombinant protein", "setting": "GpC and CpG ODNs", "value": "bind to GpC (SEQ ID NO:11) and CpG (SEQ ID NO:7)"}, {"measurement": "bactericidal activity", "setting": "Micrococcus luteus", "value": "killed"}, {"measurement": "bactericidal activity", "setting": "Streptococcus iniae; FIG. 17", "value": "killed"}, {"measurement": "MIC50 (MIC for 50% bactericidal activity)", "setting": "Streptococcus iniae; 2 h incubation, colony counts", "value": 0.86, "unit": "µM"}, {"measurement": "MIC50 (MIC for 50% bactericidal activity)", "setting": "E. coli, DH5alpha strain", "value": "0.43 uM (SEQ ID NO: 3)"}, {"measurement": "bactericidal activity", "setting": "E. coli, DH5alpha strain; FIG. 17", "value": "killed"}]}, {"molecule": "NCAMP-d1: truncated recombinant NCAMP-1, aa 1-118 of SEQ ID NO:3 (protein, listed as Ictalurus punctatus) MSAQAEETAPEAAAPVQPSQPAAKKKGPASKAKPASAEKKNKKKKGKGPGKYSQLVINAIQTLGERNGSSLFKIYNEAKKVNWFDQQHGRVYLRYSIRALLQNDTLVQVKGLGANGSF", "values": [{"measurement": "MIC50 concentration", "setting": "E. coli, DH5alpha strain", "value": 0.63, "unit": "µM"}, {"measurement": "MIC50 (MIC for 50% bactericidal activity)", "setting": "E. coli, DH5alpha strain", "value": 0.63, "unit": "µM"}]}]}
